Experiment: soluble on expression in E. coli; label from the status in PepcDB or PDB records

Sequence	soluble on expression in E. coli
MGSDKIHHHHHHMVSLMEHGMLPDAVIRSGIRRLLMKRLQEESCGDTEADRARQREFFEQLSHSPLAMETGAANKQHYELPPDFFSLVLGPRRKYSCCLYPPGVDDLATAEEAMLRLTCQRAGLADGMDILELGCGWGSLTLWMAEHYPDARITAVSNSAPQRQFIQGACRGRGFGNVRVITADMNDFTIEKTFDRVVSVEMFEHMRNYAELLRRIAGWLKDDGRLFVHIFCHRTLAYLFQTDGEDDWMGRYFFTGGIMPSDHLLFYFNDHLAVEDHWRVGGRHYQRTCDGWLERMDTERRKILEIFWDVYEGDAPVWFQRWRVFFMACSELFGYSEGNEWFVSHYLLRKNSAGVLCGNRQKALSFSGVCK	not soluble
AHHHHHHGSKAIILAAGKGERLRPLTDDRPKVVLKIANKPIISYVLENLDPFVDEFIIVVKYMKEKVIDLLGDEFRGKPITYVEQGEEEGTAAAVYSVKEFIESNEEFFVVNGDLYFEPDAVKGLLHVFKKEKGDAGIVVKEFENLSQYGMVEVENGKVKGIIEKPGNVKGYANLGIYIFKSDVFDYIENTEISERGEYEITDTINLMIKDGKSVVYYNYEGFWSDIGRPWDLLEVNEYILKTKLKHEIRGVVEEGATIIPPVEIGEGTIVRAGSYIIGPVKIGKNCRIGPNCYIRPYTSIGDNCHIGNAVEVKNSIIMDNSNAPHLNYVGDSIIGENTNLGAGTITANLRHDKGTIKVEVKGKLEDSGRRKLGAIIGHNVKVGINVTIYPGRKIGSNSFIGPGVIVDKNIPQNVLVTVKQEKKVIEK	soluble
MSERAPLVIIGTGLAGYNLAREWRKLDGETPLLMITADDGRSYSKPMLSTGFSKNKDADGLAMAEPGAMAEQLNARILTHTRVTGIDPGHQRIWIGEEEVRYRDLVLAWGAEPIRVPVEGDAQDALYPINDLEDYARFRQAAAGKRRVLLLGAGLIGCEFANDLSSGGYQLDVVAPCEQVMPGLLHPAAAKAVQAGLEGLGVRFHLGPVLASLKKAGEGLEAHLSDGEVIPCDLVVSAVGLRPRTELAFAAGLAVNRGIVVDRSLRTSHANIYALGDCAEVDGLNLLYVMPLMACARALAQTLAGNPSQVAYGPMPVTVKTPACPLVVSPPPRGMDGQWLVEGSGTDLKVLCRDTAGRVIGYALTGAAVNEKLALNKELPGLMA	soluble
MKDNNEVLKLFIVSDSIGETAQRMIHATLTQFPDLTQVEIKKFPYIKDEQEFLNVLQLAKEQNAIVATTLVSESFNALGHQFANEHQIPYVDYMSELISIIKQHTHAKPLMESGALRKLNDEYFKRIEAIEYSVKYDDGKHFTDIGEADALIVGVSRTSKTPLSMYLANKGYKIANIPLVPEVAIPDNVFQQKNLKVFGLTASPNYIANIRRNRAETLGLSSESNYNSLERIKKELSYAEEVFRKLNATVINTEYKSIEESAFYIEKFLAKRLEHHHHHH	not soluble
MLNLSRLSRKLLGWLGRPLSAAHSGEVRQRGPQTHVIILDGTMSTLEPGRETHAGQTYRLMCEMGARVSVFYEAGVQWTSWRTTPDVMMGRGLNRQIRRAYGYLASRYRPGDRIFLIGYSRGAYAVRSLAGVIDMVGLLKAEHATVRNIRQAYRHYECDVQGPHAQVFRDLYCHRDVMIEMVGVWDTVKALGLRLPVLWRLSEQRHAFHSHHLGRSVRHGYHALALNETRNVFEPILWDCKPEFRGHVEQVWFRGTHGDVGGQLGGDERARPLANLSLVWMLERAEHLGLPLPKDWHARFPTDPNAPSVGTWSGWGKIFLLRSARTVGRDPSERLHESVIGDTLPEGLPAPYLRSRSFGLEHHHHHH	soluble
MSLARPQLTILHCGKLIDGHSKNTKKVVSIIVEKNTIVDIADGYVDPGEGDLAIDLNGYTVLPGLMDMHVHLSGESNPKRYTERFTMDLDDYAYRSIAYAKRTLMAGFTTVRDLGGPINTSLRDAINNNQVVGPRVYSAGKAIATTGGHADPTNGMKFELMGDPGPAEGVVNGIAEARKAVRQRYKNGADLIKITATGGVLSVAKNGENPQFQEDEIRAIVETATDYGMHVAAHAHGAEGMKRAVRAGVRSIEHGTLMDEETMALMKEKGTYYIPTISAGEFVAEKAEIDGYYPDIVRPKAKKIGPQIKKTFQKAYDAGVSIAFGTDSGVSYHGDNAKEFAYMVEAGMSEIEAIISATKTAAELLEISNTLGTIEKDKLADIIAVEGDPIENIVALESVVFVMKNGVIYKNGDNEGHHHHHH	soluble
MSVSPFFNPKRDSQLGEMMRDMGGMQRRLMPISGTFNPMTDDSEIMNSNDKFAVNLNVSNFKPEELKVNLEGRQLSIQGEHDVENEHGASRKSFSRMILLPEDVDITSVATNLSNDGKLCIEAPKLEGVCGRSVPVKEASMDHHHIE	not soluble
MEAKTMKDMQKEVDAYIGQFKEGYFSPLAMMARLTEEMGELAREVNHYYGEKPKKTTEKERSIEEELGDVLFVMICMANSLNIDLETAHNIVMNKFNTRDKDRWTRIDEGEKE	not soluble
MSLVVVSDVFVSVRGRVMLNVEAMNMTESVGNYVKHRRVPVVLPDAKYTTYFVPAISGESIAHGFQEVLAEVGKKNGLKVCKLCEKGIFLKSTNENVFKESFSSDPPKDDFEFEKTVIENCIVEDVGGFLYAPRAGGNVKRTSNFYTGYMIPVRESIEGAVIEPQLHSRYALGTPFVEGGQGQMIYYVELSSAVYTFSFDLDTRYIGRTTFSYEKAGTEVGKRSERINAALEALKKFLIEFAFGAKKTRFLPVMEWDSLVVAVSDDVWTVPSPYTAGYIDNARKKKEKVNFNTKLFVYPEGGSFEEVVVEAIEEAKERAGKEGHHHHHH	soluble
EHQAILSKRLESVESDIRLEQNTMDMTRIDARKMQMTGDLIMKNSVTVGGIAGASGQYAATQERSEQQISQVNNRVASTASDEARESSRKSTSLIQEMLKTMESINQSKASALAAIAGNIRA	not soluble
MLNSVKKLLGDSQKRKLKKYEQLVQEINNLEEKLSDLSDEELRHKTITFKDMLRDGKTVDDIKVEAFAVVREAAKRVLGLRHYDVQLIGGLVLLEGNIAEMPTGEGKTLVSSLPTYVRALEGKGVHVITVNDYLAKRDKELIGQVHEFLGLKVGLNIPQIDPSEKKLAYEADITYGIGTEFGFDYLRDNMAASKNEQVQRPYHFAIIDEIDSVLIDEAKTPLIIAGKKSSSSDLHYLCAKVIKSFQDTLHYTYDAESKSASFTEDGITKIEDLFDIDNLYDLEHQTLYHYMIQALRAHVAFQCDVDYIVHDEKILLVDIFTGRVMDGRSLSDGLHQALEAKEGLEITEENQTQASITIQNFFRMYPALSGMTGTAKTEEKEFNRVYNMEVMPIPTNRPIIREDKKDVVYVTADAKYKAVREDVLKHNKQGRPILIGTMSILQSETVARYLDEANITYQLLNAKSAEQEADLIATAGQKGQITIATNMAGRGTDILLGEGVHELGGLHVIGTERHESRRVDNQLKGRAGRQGDPGSSQFFLSLEDEMLKRFAQEEVEKLTKSLKTDETGLILTSKVHDFVNRTQLICEGSHFSMREYNLKLDDVINDQRNVIYKLRNNLLQEDTNMIEIIIPMIDHAVEAISKQYLVEGMLPEEWDFASLTASLNEILSVENMPSLSANNVHSPEDLQSVLKETLSLYKERVNELDSNTDLQQSLRYVALHFLDQNWVNHLDAMTHLKEGIGLRQYQQEDPTRLYQKEALDIFLYTYGNFEKEMCRYVARHLGVPENVQ	not soluble
MSLERAVPLAVPLGQTEVFQALQRLHMTIFSQSVSPCGKFLAAGNNYGQIAIFSLSSALSSEAKEESKKPVVTFQAHDGPVYSMVSTDRHLLSAGDGEVKAWLWAEMLKKGCKELWRRQPPYRTSLEVPEINALLLVPKENSLILAGGDCQLHTMDLETGTFTRVLRGHTDYIHCLALRERSPEVLSGGEDGAVRLWDLRTAKEVQTIEVYKHEECSRPHNGRWIGCLATDSDWMVCGGGPALTLWHLRSSTPTTIFPIRAPQKHVTFYQDLILSAGQGRCVNQWQLSGELKAQVPGSSPGLLSLSLNQQPAAPECKVLTAAGNSCRVDVFTNLGYRAFSLSEGHHHHHH	not soluble
MTHPFEPFFDKDSKILILGSFPSIKSRQDGFYYQHPRNRFWPILETLFNAKLENITEQQAFLRKKHIALWDVLQSCKIKNSDDKTISYAKANDLNLILSQTKIQAIFTTGQSAYRFFVKFHPRLEAIALPSTSPANLNFSFEQLLQNYEIIKKFTKLEHHHHHH	not soluble
